According to patent US12404345B2, “Humanized antibodies against iRHOM2” (SCIRHOM GMBH, priority 2021, dated 2025):

Tests used:
[1] = tested on: cynomolgus monkey iRhom2; assay: FACS cross-reactivity on MEF-DKO-Cyno-iR2-FL-WT-T7 cells; type: binding; details: antibody at 3 μg/ml
Description: (§1) Next, iRhom1/2−/− DKO MEFs stably expressing a tagged form of rhesus monkey, cynomolgus monkey, dog or rabbit iRhom2 were generated in order to determine cross-reactivity of the antibodies of the invention with the respective orthologue of iRhom2. iRhom1/2−/− DKO MEFs stably expressing a tagged form of rhesus monkey, cynomolgus monkey, dog or rabbit iRhom1 were generated to confirm specificity for iRhom2 versus iRhom1 of these species.
(§2) In brief, on day 1, Phoenix-ECO cells (American Type Culture Collection, USA) were seeded on 6-well tissue culture plates (Greiner, Germany) in standard growth medium at 8×10^5 cells per well and kept overnight at 37° C., 5% CO2. On day 2, the medium was replaced by fresh medium supplemented with chloroquine (Sigma-Aldrich, USA) at a final concentration of 25 μM. Applying the calcium phosphate method, cells were transfected with 2 μg/ml of pMSCV (Clontech, USA) empty vector, pMSCV-rhesus-iR2-FL-WT-T7 encoding rhesus monkey iRhom2 full length wild type C-terminally tagged with 3 consecutive copies of the T7 epitope, pMSCV-cyno-iR2-FL-WT-T7 encoding cynomolgus monkey iRhom2 full length wild type C-terminally tagged with 3 consecutive copies of the T7 epitope, pMSCV-dog-iR2-FL-WT-T7 encoding dog iRhom2 full length wild type C-terminally tagged with 3 consecutive copies of the T7 epitope or pMSCV-rabbit-iR2-FL-WT-T7 encoding rabbit iRhom2 full length wild type C-terminally tagged with 3 consecutive copies of the T7 epitope, respectively, and were kept at 37° C., 5% CO2. After 7 hours, the transfections were stopped by replacing cell supernatants with standard growth medium lacking chloroquine, and cells were incubated at 37° C., 5% CO2 to allow virus production overnight. In parallel, immortalized iRhom1/2−/− DKO MEFs as target cells for retroviral infection were seeded on 6-well tissue culture plates (Greiner, Germany) in standard growth medium at 1×10^5 cells per well and were also kept overnight at 37° C., 5% CO2. On day 3, the supernatants of Phoenix-ECO cells releasing pMSCV, pMSCV-rhesus-iR2-FL-WT-T7, pMSCV-cyno-iR2-FL-WT-T7, pMSCV-dog-iR2-FL-WT-T7 or pMSCV-rabbit-iR2-FL-WT-T7 ecotrophic virus, respectively were collected, filtered with 0.45 μm CA filters, and supplemented with 4 μg/ml of polybrene (Sigma-Aldrich, USA). Upon removal of medium from the immortalized iRhom1/2−/− DKO MEFs, the virus containing supernatants were added to the target cells for 4 hours at 37° C., 5% CO2 for first infection. Simultaneously, Phoenix-ECO cells were re-incubated with fresh medium, which, after another 4 hours, was filtered and used for the second infection of the respective target cell populations, again in the presence of 4 μg/ml of polybrene. Likewise, a third, but overnight infection cycle was performed. On day 4, virus containing cell supernatants were replaced by fresh standard growth medium. From day 5 onwards, cells were grown in the presence of 2 mg/ml of geneticin (G418, Thermo Fisher Scientific, USA) for the selection of immortalized MEF-DKO-EV control cells stably infected with pMSCV empty vector, pMSCV-rhesus-iR2-FL-WT-T7 cells stably expressing rhesus monkey iRhom2 full length wild type C-terminally tagged with 3 consecutive copies of the T7 epitope, pMSCV-cyno-iR2-FL-WT-T7 cells stably expressing cynomolgus monkey iRhom2 full length wild type C-terminally tagged with 3 consecutive copies of the T7 epitope, pMSCV-dog-iR2-FL-WT-T7 cells stably expressing dog iRhom2 full length wild type C-terminally tagged with 3 consecutive copies of the T7 epitope or pMSCV-rabbit-iR2-FL-WT-T7 cells stably expressing rabbit iRhom2 full length wild type C-terminally tagged with 3 consecutive copies of the T7 epitope, respectively. Upon propagation, cells were stocked for future usage. In parallel, iRhom1/2−/− DKO MEFs stably expressing a tagged form of rhesus monkey, cynomolgus monkey, dog or rabbit iRhom1 were generated in an analogous manner. […]

[2] = tested on: rabbit iRhom2; assay: FACS cross-reactivity on MEF-DKO-Rabbit-iR2-FL-WT-T7 cells; type: binding; details: antibody at 3 μg/ml
Description: as §1, §2

Molecule	binding to cynomolgus monkey iRhom2 on MEF-DKO-Cyno-iR2-FL-WT-T7 cells [1]	binding to rabbit iRhom2 on MEF-DKO-Rabbit-iR2-FL-WT-T7 cells [2]
16-B-03: humanized antibody binding human iRhom2; HCVD SEQ ID NO 1, LCVD SEQ ID NO 5 (antibody, V domains shown, antibody sequences) VH: QVTLRESGPALVKPTQTLTLTCTFSGFSLSTFALGVGWIRQPPGKALEWLAHIWWDDDKYYNPALKSRLTISKDTSKNQVVLTITNMDPVDTATYYCARITTYYYGMDYWGQGTLVTVSS VL: EIVMTQSPDFQSVTPKEKVTITCRASQSIGNHLHWYQQKPDASPKLLIKYASQSISGVPSRFSGSGSGTDFTLTINSLEAEDAATYFCQQSYQWPLTFGQGTKLEIK	Strong binding	Strong binding
16-B-07: humanized antibody binding human iRhom2; HCVD SEQ ID NO 17, LCVD SEQ ID NO 21 (antibody, V domains shown, antibody sequences) VH: QVTLRESGPALVKPTQTLTLTCTFSGFSLSTFALGVGWIRQPPGKALEWLAHIWWDEDKYYNPALKSRLTISKDTSKNQVVLTITNMDPVDTATYYCARITTYYYGMDYWGQGTLVTVSS VL: EIVMTQSPDFQSVTPKEKVTITCRASQSIGNHLHWYQQKPDASPKLLIKYASQSISGVPSRFSGSGSGTDFTLTINSLEAEDAATYFCQQSYQWPLTFGQGTKLEIK	recognize cynomolgus monkey iRhom2	recognize rabbit iRhom2
16-B-05: humanized antibody binding human iRhom2; HCVD SEQ ID NO 9, LCVD SEQ ID NO 13 (antibody, V domains shown, antibody sequences) VH: QVTLRESGPALVKPTQTLTLTCTFSGFSLSTFALGVGWIRQPPGKALEWLAHIWWDEDKYYNPALKSRLTISKDTSKNQVVLTITNMDPVDTATYYCARITTYYYGMDYWGQGTLVTVSS VL: EIVMTQSPDFQSVTPKEKVTITCRASQSIGNHLHWYQQKPDASPKLLIKYASQSISGVPSRFSGSGSGTDFTLTINSLEAEDAATYFCQQSYNWPLTFGQGTKLEIK	recognize cynomolgus monkey iRhom2	recognize rabbit iRhom2
23-B-04: humanized antibody binding human iRhom2; HCVD SEQ ID NO 25, LCVD SEQ ID NO 29 (antibody, V domains shown, antibody sequences) VH: QVTLRESGPALVKPTQTLTLTCTFSGFSLSTFGMGVGWIRQPPGKALEWLAHIWWDDEKYYNSALKSRLTISKDTSKNQVVLTITNMDPVDTATYYCARISNYGSNYWYFNVWGQGTLVTVSS VL: AIQLTQSPSSLSASVGDRVTITCRASSSVSYMYWYQQKPGKAPKVLIYDTSNLASGVPSRFSGSGSGTDYTLTISSLQPEDFATYYCQQWNAYPLTFGQGTKLEIK	recognize cynomolgus monkey iRhom2	recognize rabbit iRhom2
42-B-02: humanized antibody binding human iRhom2; HCVD SEQ ID NO 33, LCVD SEQ ID NO 37 (antibody, V domains shown, antibody sequences) VH: QVTLRESGPALVKPTQTLTLTCTFSGFSLSTFGRGVGWIRQPPGKALEWLAHIWWDDEKYYNSALKSRLTISKDTSKNQVVLTITNMDPVDTATYYCARIQNYGSNYWYFDVWGQGTLVTVSS VL: AIQLTQSPSSLSASVGDRVTITCRASSRISYMFWYQQKPGKAPKVLIYDTSNLASGVPSRFSGSGSGTDYTLTISSLQPEDFATYYCQQWNSYPLTFGQGTKLEIK	recognize cynomolgus monkey iRhom2	recognize rabbit iRhom2
42-B-04: humanized antibody binding human iRhom2; HCVD SEQ ID NO 41, LCVD SEQ ID NO 45 (antibody, V domains shown, antibody sequences) VH: QVTLRESGPALVKPTQTLTLTCTFSGFSLSTFGRGVGWIRQPPGKALEWLAHIWWDDEKYYNSALKSRLTISKDTSKNQVVLTITNMDPVDTATYYCARIQNYGSNYWYFDVWGQGTLVTVSS VL: AIQLTQSPSSLSASVGDRVTITCRASSRISYMFWYQQKPGKAPKVLIYDTSNLASGVPSRFSGSGSGTDYTLTISSLQPEDFATYYCQQWNAYPLTFGQGTKLEIK	recognize cynomolgus monkey iRhom2	recognize rabbit iRhom2
